According to patent US20230406951A1 (Pfizer, published 2023):
Residue numbers refer to the chain shown, from its start. In names and notes the source's numbering stands.

B1: clone 1774 (antibody, V domains shown)
VH: QVQLVQSGAEVKKPGASVKVSCKVSGFSFPSSGVDWVRQAPGQGLEWLGVTWGVGSTHYNQKFQGRVTITKDNSKSTVYMELSSLRSEDTAVYYCASGEWDEGFVYWGQGTLVTVSS
VL: DIQLTQSPSFLSASVGDRVTITCKASQNVGTAVAWYQQKPGKAPKLLIYSASNRYTGVPSRFSGSGSGTEFTLTISSLQPEDFATYYCQQYSSYPLTFGGGTKVEIK
B2: clone 1766 (antibody, V domains shown)
VH: B1 VH with N73T
VL: B1 VL
B3: clone 1773 (antibody, name in Kabat numbering, V domains shown)
VH: B1 VH
VL: B1 VL with S50A, N53T, R54L, Y55Q, T56S
B4: TetraFab 2209 (antibody, human IgG1, kappa)
heavy: QVQLVQSGAEVKKPGASVKVSCKVSGFSFPSSGVDWVRQAPGQGLEWLGVTWGVGSTHYNQKFQGRVTITKDTSKSTVYMELSSLRSEDTAVYYCASGEWDEGFVYWGQGTLVTVSSASTKGPSVFPLAPSSKSTSGGTAALGCLVKDYFPEPVTVSWNSGALTSGVHTFPAVLQSSGLYSLSSVVTVPSSSLGTQTYICNVNHKPSNTKVDKKVEPKSCGGGGSQVQLVQSGAEVKKPGASVKVSCKVSGFSFPSSGVDWVRQAPGQGLEWLGVTWGVGSTHYNQKFQGRVTITKDTSKSTVYMELSSLRSEDTAVYYCASGEWDEGFVYWGQGTLVTVSSASTKGPSVFPLAPSSKSTSGGTAALGCLVKDYFPEPVTVSWNSGALTSGVHTFPAVLQSSGLYSLSSVVTVPSSSLGTQTYICNVNHKPSNTKVDKKVEPKSCDKTHTCPPCPAPEAAGAPSVFLFPPKPKDTLMISRTPEVTCVVVDVSHEDPEVKFNWYVDGVEVHNAKTKPREEQYNSTYRVVSVLTVLHQDWLNGKEYKCKVSNKALPAPIEKTISKAKGQPREPQVYTLPPSREEMTKNQVSLTCLVKGFYPSDIAVEWESNGQPENNYKTTPPVLDSDGSFFLYSKLTVDKSRWQQGNVFSCSVMHEALHNHYTQKSLSLSPGK
light: DIQLTQSPSFLSASVGDRVTITCKASQNVGTAVAWYQQKPGKAPKLLIYAASTLQSGVPSRFSGSGSGTEFTLTISSLQPEDFATYYCLQYSSYPLTFGGGTKVEIKRTVAAPSVFIFPPSDEQLKSGVTASVVCLLNNFYPREAKVQWKVDNALQSGNSQESVTEQDSKDSTYSLSSTLTLSKADYEKHKVYACEVTHQGLSSPVTKSFNRGEC
notes: TetraFab; parental heavy chain
B5: TetraFab 2053 (antibody, human IgG1, kappa)
heavy: B4 heavy
light: B4 light with L89Q
notes: dual Fab heavy chain (outer VH-CH1, G4S linker, inner VH-CH1, human IgG1 Fc) pairing with 4 light chains; also called TF2053
B6: TetraFab 2208 (antibody, human IgG1, kappa)
heavy: B4 heavy
light: B4 light with Y91K
notes: as for B4
B7: TetraFab 2098 (antibody)
heavy: B4 heavy with W52R, V54E, W100R, W277R, V279E, W325R
light: DIQLTQSPSFLSASVGDRVTITCKASQNVGTAVAWYQQKPGKAPKLLIYAASTLQSGVPSRFSGSGSGTEFTLTISSLQPEDFATYYCQQYNSYPFGGGTKVEIKRTVAAPSVFIFPPSDEQLKSGTASVVCLLNNFYPREAKVQWKVDNALQSGNSQESVTEQDSKDSTYSLSSTLTLSKADYEKHKVYACEVTHQGLSSPVTKSFNRGEC
notes: TetraFab
B8: TetraFab 2099 (antibody)
heavy: B4 heavy with W52R, V54E, W100Q, W277R, V279E, W325Q
light: B7 light
notes: TetraFab
B9: TetraFab 2106 (antibody)
heavy: B4 heavy with W52L, V54H, W100R, W277L, V279H, W325R
light: B7 light
notes: TetraFab
B10: TetraFab 2108 (antibody)
heavy: B4 heavy with W52H, V54S, W100S, D101T, W277H, V279S, W325S, D326T
light: B7 light
notes: TetraFab
B11: TetraFab 2109 (antibody)
heavy: B4 heavy with W52H, V54S, W100H, W277H, V279S, W325H
light: B7 light
notes: TetraFab
B12: TetraFab 2112 (antibody)
heavy: B4 heavy with W52K, V54Q, W277K, V279Q
light: B7 light with N92Y, Y94T
notes: TetraFab
B13: TetraFab 2113 (antibody)
heavy: B4 heavy with W52R, V54E, W277R, V279E
light: B7 light with N92Y, Y94T
notes: TetraFab
B14: TetraFab 2118 (antibody)
heavy: B4 heavy with W100H, W325H
light: B7 light with N92Y, Y94T
notes: TetraFab
B15: TetraFab 2125 (antibody)
heavy: B4 heavy with W52R, V54E, W100S, D101T, W277R, V279E, W325S, D326T
light: B7 light with N92Y, Y94T
notes: TetraFab
B16: TetraFab 2206 (antibody, human IgG1, kappa, name in Kabat numbering)
heavy: B4 heavy
light: DIQLTQSPSFLSASVGDRVTITCKASQNVGTAVAWYQQKPGKAPKLLIYAASTLQSGVPSRFSGSGSGTEFTLTISSLQPEDFATYYCQQYNSYPFGGGTKVEIKRTVAAPSVFIFPPSDEQLKSGVTASVVCLLNNFYPREAKVQWKVDNALQSGNSQESVTEQDSKDSTYSLSSTLTLSKADYEKHKVYACEVTHQGLSSPVTKSFNRGEC
notes: as for B4
B17: TetraFab 2207 (antibody, human IgG1, kappa, name in Kabat numbering)
heavy: B4 heavy
light: B16 light with N92Y, Y94T
notes: as for B4

Tests used:
human TNFR2 (human) = human TNFR2 (human) (UniProt P20333); test: cell-based or functional assay
human TNFR2 [1] = biological target: T1, human TNFR2 (human, UniProt P20333 23-461); test: binding to human TNFR2 CHO cells
T1 construct: Human TNFR2 over-expressed on CHO cells, full length on transduced NF-KB-GFP Jurkat cells, or native on human primary T cells; also called Hu TNFR2; TNFRSF1B
T1 sequence: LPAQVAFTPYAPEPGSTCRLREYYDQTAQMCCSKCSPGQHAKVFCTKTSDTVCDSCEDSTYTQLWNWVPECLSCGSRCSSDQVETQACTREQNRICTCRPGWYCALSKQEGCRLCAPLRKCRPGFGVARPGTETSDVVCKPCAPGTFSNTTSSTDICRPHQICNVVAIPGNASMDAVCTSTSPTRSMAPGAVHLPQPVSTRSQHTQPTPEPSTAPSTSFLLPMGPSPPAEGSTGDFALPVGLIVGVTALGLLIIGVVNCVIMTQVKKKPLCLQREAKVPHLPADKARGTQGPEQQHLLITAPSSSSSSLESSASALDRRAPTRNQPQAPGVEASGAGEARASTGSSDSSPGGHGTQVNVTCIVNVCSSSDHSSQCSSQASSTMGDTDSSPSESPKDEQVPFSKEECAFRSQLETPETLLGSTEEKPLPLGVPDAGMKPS

human TNFR2 [2] = biological target: T2, human TNFR2 (human, UniProt P20333 23-461); test: binding to human TNFR2 CHO cells, TetraFab format
T2 construct: expressed on the surface of CHO cells; also called HuTNFR2; TNFRSF1B
T2 sequence: T1 sequence

human TNFR2 [3] = biological target: T2, human TNFR2; test: binding to human TNFR2 CHO cells

Molecule | binding result (human TNFR2 [3]) | also measured
MR2-1 (Hycult Biotech, ref #HM2007) (antibody) | – | EC50 Jurkat assay, With aggregates (human TNFR2 (human)): 0.12 µg/mL; EC50 Jurkat assay, Without aggregates (human TNFR2 (human)): 5.75 µg/mL; Loss of potency (without against with aggregates) (human TNFR2 (human)): 50 fold
B1 | – | EC50 (human TNFR2 [1]): 1.56 nM
B2 | – | EC50 (human TNFR2 [1]): 1.19 nM
B3 | – | EC50 (human TNFR2 [1]): 1.13 nM
B4 | – | EC50 (human TNFR2 [2]): 0.15 nM
B5 | – | EC50 (human TNFR2 [2]): 0.7 nM
B6 | – | EC50 (human TNFR2 [2]): 2.3 nM
B7 | no binding | –
B8 | no binding | –
B9 | no binding | –
B10 | no binding | –
B11 | no binding | –
B12 | no binding | –
B13 | no binding | –
B14 | no binding | –
B15 | no binding | –
B16 | no binding | –
B17 | no binding | –
